The chains are these.
B1: RAB22A (parent)
chain: FVEDSFDPNINPTIGASFMTKTVQ
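Also: lentivirally expressed fusions sorted by FACS into six bins by GFP to DsRed ratio, PSI derived from sequencing read proportions per bin multiplied by bin number.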

The variants in this data set derive from B1. The data set can be described thus: protein stability index of a GFP-peptide fusion (GPS, HEK-293T) (PSI 1-6); higher = more stable. Conditions: c terminus: a fixed tail appended.
With FVEDSFDPNKNPTIGASFMTKTVQ [I10K], the protein stability index was determined as 2.5.

Turning to FVEDSFDPNCNPTIGASFMTKTVQ [I10C], the protein stability index was 2.14.

For the variant FVEDSFDPNHNPTIGASFMTKTVQ [I10H], the protein stability index stood at 2.48.

Turning to FVEDSFDPNQNPTIGASFMTKTVQ [I10Q], the protein stability index stood at 2.81.

As for FVEDSFDPNENPTIGASFMTKTVQ [I10E], the protein stability index came out at 3.02.

For the variant FVEDSFDPNSNPTIGASFMTKTVQ [I10S], the protein stability index worked out at 2.56.

For FVEDSFDPNWNPTIGASFMTKTVQ [I10W], the protein stability index came to 1.93.

Consider FVEDSFDPNNNPTIGASFMTKTVQ [I10N], for which the protein stability index came out at 2.73.

Consider FVEDSFDPNYNPTIGASFMTKTVQ [I10Y], for which the protein stability index was found to be 2.25.

Turning to FVEDSFDPNMNPTIGASFMTKTVQ [I10M], the protein stability index is 1.99.

Consider FVEDSFDPNRNPTIGASFMTKTVQ [I10R], for which the protein stability index came to 2.1.

Regarding FVEDSFDPNANPTIGASFMTKTVQ [I10A], the protein stability index came to 2.48.

Regarding FVEDSFDPHINPTIGASFMTKTVQ [N9H], the protein stability index came to 2.22.

On to FVEDSFDPYINPTIGASFMTKTVQ [N9Y], for which the protein stability index turned out to be 1.72.

On to FVEDSFDPSINPTIGASFMTKTVQ [N9S], for which the protein stability index came to 2.51.

Take FVEDSFDPVINPTIGASFMTKTVQ [N9V]: the protein stability index worked out at 2.04.

With FVEDSFDPQINPTIGASFMTKTVQ [N9Q], the protein stability index is 2.1.

FVEDSFDPKINPTIGASFMTKTVQ [N9K]: the protein stability index worked out at 1.88.

As for FVEDSFDPGINPTIGASFMTKTVQ [N9G], the protein stability index came to 2.78.

For FVEDSFDPLINPTIGASFMTKTVQ [N9L], the protein stability index was found to be 1.66.

FVEDSFDPTINPTIGASFMTKTVQ [N9T]: the protein stability index was 2.26.

For FVEDSFDPFINPTIGASFMTKTVQ [N9F], the protein stability index worked out at 1.92.

In the case of FVEDSFDPEINPTIGASFMTKTVQ [N9E], the protein stability index was 2.47.

Take FVEDSFDPRINPTIGASFMTKTVQ [N9R]: the protein stability index is 1.95.

FVEDSFDPWINPTIGASFMTKTVQ [N9W]: the protein stability index worked out at 2.65.

Consider FVEDSFDPIINPTIGASFMTKTVQ [N9I], for which the protein stability index was found to be 2.23.

As to FVEDSFDPAINPTIGASFMTKTVQ [N9A], the protein stability index turned out to be 2.25.

For the variant FVEDSFDPCINPTIGASFMTKTVQ [N9C], the protein stability index turned out to be 2.08.

For FVEDSFDPMINPTIGASFMTKTVQ [N9M], the protein stability index came out at 2.35.

For FVEDSFDPDINPTIGASFMTKTVQ [N9D], the protein stability index worked out at 2.73.

For FVEDSFDPPINPTIGASFMTKTVQ [N9P], the protein stability index was found to be 2.49.

Turning to FVEDGFDPNINPTIGASFMTKTVQ [S5G], the protein stability index was 2.08.

Take FVEDCFDPNINPTIGASFMTKTVQ [S5C]: the protein stability index was 2.03.

FVEDYFDPNINPTIGASFMTKTVQ [S5Y]: the protein stability index amounted to 1.98.

Consider FVEDKFDPNINPTIGASFMTKTVQ [S5K], for which the protein stability index amounted to 2.1.

With FVEDPFDPNINPTIGASFMTKTVQ [S5P], the protein stability index came out at 1.96.

Take FVEDMFDPNINPTIGASFMTKTVQ [S5M]: the protein stability index is 1.99.

For FVEDAFDPNINPTIGASFMTKTVQ [S5A], the protein stability index is 2.16.

For FVEDWFDPNINPTIGASFMTKTVQ [S5W], the protein stability index is 1.52.

Take FVEDTFDPNINPTIGASFMTKTVQ [S5T]: the protein stability index amounted to 2.34.

On to FVEDQFDPNINPTIGASFMTKTVQ [S5Q], for which the protein stability index came to 2.65.

With FVEDLFDPNINPTIGASFMTKTVQ [S5L], the protein stability index worked out at 1.97.

FVEDVFDPNINPTIGASFMTKTVQ [S5V]: the protein stability index worked out at 1.89.

As to FVEDEFDPNINPTIGASFMTKTVQ [S5E], the protein stability index turned out to be 3.63.

In the case of FVEDRFDPNINPTIGASFMTKTVQ [S5R], the protein stability index worked out at 1.93.

Turning to FVEDNFDPNINPTIGASFMTKTVQ [S5N], the protein stability index came to 2.64.

Take FVEDHFDPNINPTIGASFMTKTVQ [S5H]: the protein stability index stood at 1.74.

As for FVEDDFDPNINPTIGASFMTKTVQ [S5D], the protein stability index stood at 3.27.

As for FVEDFFDPNINPTIGASFMTKTVQ [S5F], the protein stability index stood at 2.92.

Take FVEDIFDPNINPTIGASFMTKTVQ [S5I]: the protein stability index worked out at 2.18.

For FVEDSFDPNIWPTIGASFMTKTVQ [N11W], the protein stability index is 2.41.

For the variant FVEDSFDPNIYPTIGASFMTKTVQ [N11Y], the protein stability index was determined as 2.16.

For the variant FVEDSFDPNICPTIGASFMTKTVQ [N11C], the protein stability index came to 2.46.

Consider FVEDSFDPNIFPTIGASFMTKTVQ [N11F], for which the protein stability index came out at 1.82.

For FVEDSFDPNIHPTIGASFMTKTVQ [N11H], the protein stability index came to 1.85.

Regarding FVEDSFDPNIVPTIGASFMTKTVQ [N11V], the protein stability index amounted to 2.24.

In the case of FVEDSFDPNIPPTIGASFMTKTVQ [N11P], the protein stability index came to 2.43.

As to FVEDSFDPNIAPTIGASFMTKTVQ [N11A], the protein stability index was 2.42.

In the case of FVEDSFDPNIKPTIGASFMTKTVQ [N11K], the protein stability index was 2.47.

As to FVEDSFDPNISPTIGASFMTKTVQ [N11S], the protein stability index was found to be 2.04.

For FVEDSFDPNIDPTIGASFMTKTVQ [N11D], the protein stability index turned out to be 2.56.

For FVEDSFDPNIEPTIGASFMTKTVQ [N11E], the protein stability index was determined as 2.58.

On to FVEDSFDPNIGPTIGASFMTKTVQ [N11G], for which the protein stability index turned out to be 2.07.

For FVEDSFDPNITPTIGASFMTKTVQ [N11T], the protein stability index stood at 2.4.

On to FVEDSFDPNIMPTIGASFMTKTVQ [N11M], for which the protein stability index is 2.14.

As to FVEDSFDPNIIPTIGASFMTKTVQ [N11I], the protein stability index came to 2.23.

Take FVEDSFDPNILPTIGASFMTKTVQ [N11L]: the protein stability index was determined as 1.85.

For FVEDSFDPNIQPTIGASFMTKTVQ [N11Q], the protein stability index turned out to be 2.48.

Consider FVEDSFDPNIRPTIGASFMTKTVQ [N11R], for which the protein stability index came out at 1.75.

On to FVESSFDPNINPTIGASFMTKTVQ [D4S], for which the protein stability index came out at 1.65.

As to FVETSFDPNINPTIGASFMTKTVQ [D4T], the protein stability index turned out to be 1.89.

For the variant FVEVSFDPNINPTIGASFMTKTVQ [D4V], the protein stability index was 2.36.

Consider FVEYSFDPNINPTIGASFMTKTVQ [D4Y], for which the protein stability index was 2.98.

For FVEWSFDPNINPTIGASFMTKTVQ [D4W], the protein stability index came to 2.1.

With FVERSFDPNINPTIGASFMTKTVQ [D4R], the protein stability index was 1.7.

FVEDSFDDNINPTIGASFMTKTVQ [P8D]: the protein stability index was 2.76.

In the case of FVEDSFDKNINPTIGASFMTKTVQ [P8K], the protein stability index was found to be 2.13.

Take FVEDSFDYNINPTIGASFMTKTVQ [P8Y]: the protein stability index came to 1.85.

FVEDSFDENINPTIGASFMTKTVQ [P8E]: the protein stability index amounted to 2.7.

Consider FVEDSFDFNINPTIGASFMTKTVQ [P8F], for which the protein stability index was 2.94.

FVEDSFDQNINPTIGASFMTKTVQ [P8Q]: the protein stability index amounted to 2.26.

Take FVEDSFDNNINPTIGASFMTKTVQ [P8N]: the protein stability index stood at 2.35.

As to FVEDSFDHNINPTIGASFMTKTVQ [P8H], the protein stability index amounted to 2.1.

Consider FVEDSFDVNINPTIGASFMTKTVQ [P8V], for which the protein stability index worked out at 2.27.

For FVEDSFDININPTIGASFMTKTVQ [P8I], the protein stability index turned out to be 1.67.

For FVEDSFDCNINPTIGASFMTKTVQ [P8C], the protein stability index was 2.02.

Regarding FVEDSFDMNINPTIGASFMTKTVQ [P8M], the protein stability index is 2.06.

With FVEDSFDGNINPTIGASFMTKTVQ [P8G], the protein stability index is 2.52.

Consider FVEDSFDWNINPTIGASFMTKTVQ [P8W], for which the protein stability index amounted to 2.65.

Take FVEDSFDRNINPTIGASFMTKTVQ [P8R]: the protein stability index amounted to 2.63.

In the case of FVEDSFDANINPTIGASFMTKTVQ [P8A], the protein stability index is 2.33.

Take FVEDSFDTNINPTIGASFMTKTVQ [P8T]: the protein stability index was 2.39.

Turning to FVEDSFDSNINPTIGASFMTKTVQ [P8S], the protein stability index is 2.17.

Turning to FVEDSFDLNINPTIGASFMTKTVQ [P8L], the protein stability index was 2.1.

The values are drawn from the supplement of paper PMC10567573.
